Experiments:
CD16 (FcγRIIIa V158) [1] = molecular target: CD16 (FcγRIIIa V158) (UniProt P08637); experiment: solution affinity SPR: inhibition of CD16 binding to immobilized IgG1 MAb
CD64 (FcγRI) [2] = molecular target: CD64 (FcγRI) (UniProt P12314); experiment: solution affinity SPR: inhibition of CD64 binding to immobilized IgG1 MAb
CD32a = CD32a (UniProt P12318); experiment: solution affinity SPR: inhibition of CD32a binding to immobilized IgG1 MAb
CD16 (FcγRIIIa V158) [3] = molecular target: CD16 (FcγRIIIa V158) (UniProt P08637); experiment: solution affinity SPR: antibody titrated into CD16, inhibition of CD16 binding to immobilized IgG1 MAb; average of two titrations
CD64 (FcγRI) [4] = molecular target: CD64 (FcγRI) (UniProt P12314); experiment: solution affinity SPR: antibody titrated into CD64, inhibition of CD64 binding to immobilized IgG1 MAb; average of two titrations

CD64 (FcγRI), sequence (P12314 16-288 limits assumed): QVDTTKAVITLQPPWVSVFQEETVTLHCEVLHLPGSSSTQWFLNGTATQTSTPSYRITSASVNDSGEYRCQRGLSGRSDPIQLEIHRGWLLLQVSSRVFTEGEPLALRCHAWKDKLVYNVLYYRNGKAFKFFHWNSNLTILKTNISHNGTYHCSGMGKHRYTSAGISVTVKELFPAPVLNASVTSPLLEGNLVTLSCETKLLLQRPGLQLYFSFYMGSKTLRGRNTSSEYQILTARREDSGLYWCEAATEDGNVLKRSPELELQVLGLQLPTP
CD16 (FcγRIIIa V158), sequence (P08637 17-208 F176V limits assumed): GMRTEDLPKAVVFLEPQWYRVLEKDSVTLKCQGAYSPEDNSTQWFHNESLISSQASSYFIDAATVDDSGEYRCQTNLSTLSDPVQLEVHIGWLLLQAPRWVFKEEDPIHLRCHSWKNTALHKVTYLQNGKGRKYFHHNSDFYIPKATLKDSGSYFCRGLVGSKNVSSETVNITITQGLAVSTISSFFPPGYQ
CD32a, sequence (P12318 34-217 limits assumed): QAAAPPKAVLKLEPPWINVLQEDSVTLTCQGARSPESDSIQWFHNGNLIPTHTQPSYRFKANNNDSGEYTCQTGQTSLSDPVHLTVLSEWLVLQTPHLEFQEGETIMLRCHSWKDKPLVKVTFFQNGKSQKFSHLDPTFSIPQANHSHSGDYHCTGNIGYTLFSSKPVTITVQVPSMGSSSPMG

Substance | IC50 (CD16 (FcγRIIIa V158) [1]) | IC50 (CD64 (FcγRI) [2]) | also measured
EAG2478 (CN578-Fc; agly IgG1 Fc T299K, no Fab) (from UniProt P0DOX5 218-448) | 6000 µM | – | –
EAG2476 (YC406-Fc; agly IgG4-Fc T299K, T307P, L309K, D399S, no Fab) (from UniProt P01861 99-325) | 1320 µM | – | –
EAG2389 (hu5c8 aglycosylated IgG1 T299Q) (antibody) | – | 455 µM | –
IgG1 T299A (hu5c8 aglycosylated IgG1) (antibody) | – | – | IC50 (CD64 (FcγRI) [4]): 205 µM
EAG2377 (hu5c8 aglycosylated IgG1 T299N) (antibody) | – | 586 µM | –
CN578 (hu5c8 aglycosylated IgG1 T299K) (antibody) | 1320 µM | – | IC50 (CD64 (FcγRI) [4]): 1420 µM
EAG2390 (hu5c8 aglycosylated IgG1 T299P) (antibody) | – | 392 µM | –

Now from value to substance, other results behind:

IC50 (CD16 (FcγRIIIa V158) [1]) | IC50 (CD64 (FcγRI) [2]) | Substance | also measured
– | 196 µM | EAG2379 (hu5c8 aglycosylated IgG1 T299E) (antibody) | IC50 (CD32a): 1280 µM
105 µM | – | IgG1 control antibody (hu5c8 wild-type glycosylated IgG1) | IC50 (CD16 (FcγRIIIa V158) [3]): 100 µM; IC50 (CD64 (FcγRI) [4]): 9.64 µM
– | 345 µM | EAG2380 (hu5c8 aglycosylated IgG1 T299F) (antibody) | –
– | 5970 µM | EAG2378 (hu5c8 aglycosylated IgG1 T299R) (antibody) | –

— US20120100140A1
